Here are results for one molecule from patent US5145783A, “Glyphosate-tolerant 5-endolpyruvyl-3-phosphoshikimate synthase” (Monsanto Company, priority 1990, dated 1992).

The target of this series is T1, wild-type EPSP synthase of tomato (Solanum lycopersicum, UniProt P10748).
T1 construct: ATG translational initiation codon at the site predicted to be the start of the mature enzyme for in vitro expression in E. Coli; initiator methionine (ATG in an engineered NcoI site) (N); made in house; host or cells: E. coli SR481 (aroA mutant) harboring pMON9719, desalted cell extract
The experiment in a line: EPSP synthase activity assay, extracts of E. coli SR481 harboring pMON9719. The conditions noted are these: cells containing pMON9719, no glyphosate. Type of series: biochemical. On the procedure: E. coli SR481 cells harboring pMON9719 or pMON9729 were grown under conditions which induce the expression of the RecA promoter. The cells were lysed and the extracts were assayed for EPSP synthase activity.
Specifically, the bacterial cell paste was washed twice with 0.9% saline, suspended in buffer (100 mM Tris-HCl, 5 mM dithiothreitol, 1 mM EDTA, 10% glycerol and 1 mM benzamidine HCl) passed twice through the French Pressure Cell at 1000 psi. The cell abstract was separated from the cells by centrifuging at 15,000×gravity for 10 mins. at 5° C. It was desalted using Sephadex G-50 (Pharmacia, Piscataway, N.J.). The desalted extract was assayed for EPSP synthase activity as follows:
To an assay mix (40 μl) containing shikimate-3-phosphate (2 mM), ^14 C-phosphoenolpyruvate (1 mM, 1.2 mCi/mmol), ammonium molybdate (0.1 mM), potassium fluoride (5 mM), in 50 mM HEPES-KOH, pH 7, was added 10 μl of the extract and incubated at 25° C. for 2 mins. […] The radioactivity of the eluent was monitored using a Radiometric Flo-One Beta Instrument. […] The EPSP synthase activity was determined by measurement of the conversion of ^14 C-PEP to ^14 […], both of which are resolved under the above conditions of chromatography. The protein content of the extract was determined by the method of Bradford (Biorad Labs, Calif.). […]

B1: pMON9719: wild-type EPSP synthase of tomato expressed in E. coli SR481 under the recA promoter, cell extract (protein, UniProt P10748 77-520, looked up)
3-phosphoshikimate …: KPHEIVLXPIKDISGTVKLPGSKSLSNRILLLAALSEGRTVVDNLLSSDDIHYMLGALKTLGLHVEDDNENQRAIVEGCGGQFPVGKKSEEEIQLFLGNAGTAMRPLTAAVTVAGGHSRYVLDGVPRMRERPIGDLVDGLKQLGAEVDCSLGTNCPPVRIVSKGGLPGGKVKLSGSISSQYLTALLMAAPLALGDVEIEIIDKLISVPYVEMTLKLMERFGVFVEHSSGWDRFLVKGGQKYKSPGKAFVEGDASSASYFLAGAAVTGGTVTVEGCGTSSLQGDVKFAEVLEKMGAEVTWTENSVTVKGPPRNSSGMKHLRAIDVNMNKMPDVAMTLAVVALFADGPTTIRDVASWRVKETERMIAICTELRKLGATVVEGSDYCIITPPEKLNVTEIDTYDDHRMAMAFSLAACADVPVTIKNPGCTRKTFPDYFEVLQKYSKH
modifications: X: residue not identified in the source
notes: wild-type EPSP synthase of tomato expressed in E. coli SR481 under the recA promoter, cell extract
On to B1, for which the “EPSP synthase activity (specific activity of the extract)” value was “about 1600 nanomoles of EPSP synthase formed/minute/mg protein”.
